Data taken from publication PMC9482650, “Quantitative fragmentomics allow affinity mapping of interactomes” (Nature Communications, 2022).
Each block holds one binder with its values, some of them ahead of it.

How the values were obtained:
Assay in all cases: holdup assay
Set-up in all cases: key: below the threshold = too weak to quantify, mostly under pKd 3.1 to 4
HTRA2, O43464 = molecular target: HTRA2, O43464
DLG5_1, Q8TDM6 = molecular target: DLG5_1, Q8TDM6
SNTB1, Q13884 = molecular target: T1, SNTB1, Q13884
T1 sequence (Q13884 107-205, limits assumed, looked up): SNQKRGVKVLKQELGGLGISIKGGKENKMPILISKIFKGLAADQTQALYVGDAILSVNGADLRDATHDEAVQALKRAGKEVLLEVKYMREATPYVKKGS

AHNAK1, Q09666 = molecular target: AHNAK1, Q09666
ARHGEF11, O15085 = molecular target: T2, ARHGEF11, O15085
T2 sequence (O15085 42-136, limits assumed, looked up): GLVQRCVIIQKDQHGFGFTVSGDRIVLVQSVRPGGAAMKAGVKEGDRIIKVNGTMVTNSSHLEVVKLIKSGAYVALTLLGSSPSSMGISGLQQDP

PDZD2_2, O15018 = molecular target: T3, PDZD2_2, O15018
T3 sequence (O15018 329-429, limits assumed, looked up): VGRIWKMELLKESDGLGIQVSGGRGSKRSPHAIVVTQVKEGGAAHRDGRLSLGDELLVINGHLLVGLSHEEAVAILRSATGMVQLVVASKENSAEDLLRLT

DLG3_1, Q92796 = molecular target: T4, DLG3_1, Q92796
T4 sequence (Q92796 125-227, limits assumed, looked up): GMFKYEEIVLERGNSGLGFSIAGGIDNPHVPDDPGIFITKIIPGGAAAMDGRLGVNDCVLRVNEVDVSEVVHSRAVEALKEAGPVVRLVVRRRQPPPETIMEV

SNX27, Q96L92 = molecular target: SNX27, Q96L92
MPP7, Q5T2T1 = molecular target: T5, MPP7, Q5T2T1
T5 sequence (Q5T2T1 134-230, limits assumed, looked up): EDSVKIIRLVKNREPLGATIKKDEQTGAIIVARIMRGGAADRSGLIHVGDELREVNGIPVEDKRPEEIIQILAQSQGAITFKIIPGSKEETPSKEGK

IL16_4, Q14005 = molecular target: IL16_4, Q14005
APBA3_1, O96018 = molecular target: T6, APBA3_1, O96018
T6 sequence (O96018 389-490, limits assumed, looked up): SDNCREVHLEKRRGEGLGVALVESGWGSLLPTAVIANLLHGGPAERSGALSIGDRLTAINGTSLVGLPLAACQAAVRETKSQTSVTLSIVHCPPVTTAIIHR

MPP6, Q9NZW5 = molecular target: T7, MPP6, Q9NZW5
T7 sequence (Q9NZW5 125-219, limits assumed, looked up): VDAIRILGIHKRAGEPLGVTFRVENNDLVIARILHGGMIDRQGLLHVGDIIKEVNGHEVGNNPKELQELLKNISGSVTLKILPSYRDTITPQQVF

FRMPD2_1, Q68DX3 = molecular target: FRMPD2_1, Q68DX3
MAGI2_6, Q86UL8 = molecular target: MAGI2_6, Q86UL8
SNTA1, Q13424 = molecular target: T8, SNTA1, Q13424
T8 sequence (Q13424 82-180, limits assumed, looked up): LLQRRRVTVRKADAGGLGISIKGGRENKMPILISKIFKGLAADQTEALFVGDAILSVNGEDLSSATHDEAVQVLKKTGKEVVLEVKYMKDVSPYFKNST

LRRC7, Q96NW7 = molecular target: T9, LRRC7, Q96NW7
T9 sequence (Q96NW7 1440-1537, limits assumed, looked up): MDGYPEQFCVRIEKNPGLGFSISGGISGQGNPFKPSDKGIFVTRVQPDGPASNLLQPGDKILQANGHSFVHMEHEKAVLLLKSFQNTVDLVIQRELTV

GRIP2_6, Q9C0E4 = molecular target: GRIP2_6, Q9C0E4
DLG2_3, Q15700 = molecular target: DLG2_3, Q15700
APBA2_1, Q99767 = molecular target: T10, APBA2_1, Q99767
T10 sequence (Q99767 563-664, limits assumed, looked up): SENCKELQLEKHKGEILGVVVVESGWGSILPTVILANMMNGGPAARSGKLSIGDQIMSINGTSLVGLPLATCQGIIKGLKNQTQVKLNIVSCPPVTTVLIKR

PTPN13_1, Q12923 = molecular target: T11, PTPN13_1, Q12923
T11 sequence (Q12923 1088-1188, limits assumed, looked up): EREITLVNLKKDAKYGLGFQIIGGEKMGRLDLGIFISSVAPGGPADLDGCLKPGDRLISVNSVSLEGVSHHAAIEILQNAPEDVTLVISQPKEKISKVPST

PARD3_3, Q8TEW0 = molecular target: PARD3_3, Q8TEW0
LAP2, Q96RT1 = molecular target: LAP2, Q96RT1
FRMPD2_3, Q68DX3 = molecular target: FRMPD2_3, Q68DX3
RAPGEF6, Q8TEU7 = molecular target: T12, RAPGEF6, Q8TEU7
T12 sequence (Q8TEU7 525-625, limits assumed, looked up): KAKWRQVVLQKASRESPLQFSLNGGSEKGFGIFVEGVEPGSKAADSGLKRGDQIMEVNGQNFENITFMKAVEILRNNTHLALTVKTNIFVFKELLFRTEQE

DVL3, Q92997 = molecular target: T13, DVL3, Q92997
T13 sequence (Q92997 244-331, limits assumed, looked up): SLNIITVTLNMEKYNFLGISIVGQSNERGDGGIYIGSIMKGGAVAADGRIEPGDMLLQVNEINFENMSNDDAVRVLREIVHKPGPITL

[1] = plain residues with an end cap or a label only (N-terminal biotin on a linker: ado-ado)
[2] = plain residues with an end cap or a label only (N-terminal biotin on a linker: ttds)
[3] = plain residues with an end cap or a label only (N-terminal biotin on a linker: ahx)

Chain of HTRA2, O43464 (O43464 355-458): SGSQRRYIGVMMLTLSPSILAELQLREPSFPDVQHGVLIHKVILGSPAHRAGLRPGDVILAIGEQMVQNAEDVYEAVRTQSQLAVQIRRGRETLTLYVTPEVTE
Chain of IL16_4, Q14005 (Q14005 1229-1329): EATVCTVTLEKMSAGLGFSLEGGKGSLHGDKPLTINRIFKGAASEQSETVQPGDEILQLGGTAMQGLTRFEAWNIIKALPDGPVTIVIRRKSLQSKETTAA
Chain of DLG5_1, Q8TDM6 (Q8TDM6 617-713): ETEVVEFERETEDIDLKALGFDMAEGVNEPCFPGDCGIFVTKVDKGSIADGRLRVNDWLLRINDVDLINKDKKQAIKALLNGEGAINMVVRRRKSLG
Chain of LAP2, Q96RT1 (Q96RT1 other isoform, or with tags, fused parts or gaps): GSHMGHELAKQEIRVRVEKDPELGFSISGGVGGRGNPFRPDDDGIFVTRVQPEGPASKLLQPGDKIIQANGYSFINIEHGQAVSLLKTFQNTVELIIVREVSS
Chain of PARD3_3, Q8TEW0 (Q8TEW0 582-685): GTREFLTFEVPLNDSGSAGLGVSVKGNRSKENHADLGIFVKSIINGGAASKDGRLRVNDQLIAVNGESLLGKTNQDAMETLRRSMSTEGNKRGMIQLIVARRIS
Chain of GRIP2_6, Q9C0E4 (Q9C0E4 648-740): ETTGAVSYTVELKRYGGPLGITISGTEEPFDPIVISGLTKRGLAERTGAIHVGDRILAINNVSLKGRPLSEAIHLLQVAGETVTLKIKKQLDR
Chain of MAGI2_6, Q86UL8 (Q86UL8 1141-1229): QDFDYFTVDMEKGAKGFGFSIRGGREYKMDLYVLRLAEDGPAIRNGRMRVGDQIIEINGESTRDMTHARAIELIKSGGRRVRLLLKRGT
Chain of FRMPD2_1, Q68DX3 (Q68DX3 770-861): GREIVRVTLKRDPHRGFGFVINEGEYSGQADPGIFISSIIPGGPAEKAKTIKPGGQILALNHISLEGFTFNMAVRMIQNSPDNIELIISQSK
Chain of FRMPD2_3, Q68DX3 (Q68DX3 1073-1166): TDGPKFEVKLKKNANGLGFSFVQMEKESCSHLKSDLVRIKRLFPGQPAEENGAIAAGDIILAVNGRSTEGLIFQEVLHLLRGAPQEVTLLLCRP
Chain of AHNAK1, Q09666 (Q09666 4-100): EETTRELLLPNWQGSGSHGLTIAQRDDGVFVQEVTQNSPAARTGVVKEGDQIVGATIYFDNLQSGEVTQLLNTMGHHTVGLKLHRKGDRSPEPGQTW

Binder: SPLHSLETSL [ATP2B1, P20020]
pKd (HTRA2, O43464; [2]): below the threshold
pKd (DLG5_1, Q8TDM6; [2]): below the threshold
pKd (SNTB1, Q13884; [2]): 4.69
pKd (AHNAK1, Q09666; [2]): below the threshold
pKd (ARHGEF11, O15085; [2]): 4.27
pKd (PDZD2_2, O15018; [2]): below the threshold
pKd (DLG3_1, Q92796; [2]): 3.62
pKd (SNX27, Q96L92; [2]): 5.48
pKd (MPP7, Q5T2T1; [2]): below the threshold
pKd (IL16_4, Q14005; [2]): below the threshold
pKd (APBA3_1, O96018; [2]): 3.47
pKd (MPP6, Q9NZW5; [2]): below the threshold
pKd (FRMPD2_1, Q68DX3; [2]): below the threshold
pKd (MAGI2_6, Q86UL8; [2]): 4.24
pKd (SNTA1, Q13424; [2]): 4.5
pKd (LRRC7, Q96NW7; [2]): 3.58
pKd (GRIP2_6, Q9C0E4; [2]): below the threshold
pKd (DLG2_3, Q15700; [2]): 4.07
pKd (APBA2_1, Q99767; [2]): below the threshold
pKd (PTPN13_1, Q12923; [2]): below the threshold
pKd (PARD3_3, Q8TEW0; [2]): 3.82
pKd (LAP2, Q96RT1; [2]): 3.8
pKd (FRMPD2_3, Q68DX3; [2]): below the threshold
pKd (RAPGEF6, Q8TEU7; [2]): below the threshold
pKd (DVL3, Q92997; [2]): below the threshold

Binder: RNCSTNDSLL [ADRB2, P07550]
pKd (HTRA2, O43464; [3]): below the threshold
pKd (DLG5_1, Q8TDM6; [3]): below the threshold
pKd (SNTB1, Q13884; [3]): below the threshold
pKd (AHNAK1, Q09666; [3]): below the threshold
pKd (ARHGEF11, O15085; [3]): below the threshold
pKd (PDZD2_2, O15018; [3]): below the threshold
pKd (DLG3_1, Q92796; [3]): below the threshold
pKd (SNX27, Q96L92; [3]): 3.6
pKd (MPP7, Q5T2T1; [3]): below the threshold
pKd (IL16_4, Q14005; [3]): below the threshold
pKd (APBA3_1, O96018; [3]): below the threshold
pKd (MPP6, Q9NZW5; [3]): below the threshold
pKd (FRMPD2_1, Q68DX3; [3]): below the threshold
pKd (MAGI2_6, Q86UL8; [3]): below the threshold
pKd (SNTA1, Q13424; [3]): below the threshold
pKd (LRRC7, Q96NW7; [3]): below the threshold
pKd (GRIP2_6, Q9C0E4; [3]): below the threshold
pKd (DLG2_3, Q15700; [3]): below the threshold
pKd (APBA2_1, Q99767; [3]): below the threshold
pKd (PTPN13_1, Q12923; [3]): below the threshold
pKd (PARD3_3, Q8TEW0; [3]): 3.79
pKd (LAP2, Q96RT1; [3]): below the threshold
pKd (FRMPD2_3, Q68DX3; [3]): below the threshold
pKd (RAPGEF6, Q8TEU7; [3]): below the threshold
pKd (DVL3, Q92997; [3]): below the threshold

Binder: DPLTPSRSQL [DGKK, Q5KSL6]
pKd (HTRA2, O43464; [2]): below the threshold
pKd (DLG5_1, Q8TDM6; [2]): below the threshold
pKd (SNTB1, Q13884; [2]): below the threshold
pKd (AHNAK1, Q09666; [2]): below the threshold
pKd (ARHGEF11, O15085; [2]): below the threshold
pKd (PDZD2_2, O15018; [2]): below the threshold
pKd (DLG3_1, Q92796; [2]): below the threshold
pKd (SNX27, Q96L92; [2]): below the threshold
pKd (MPP7, Q5T2T1; [2]): below the threshold
pKd (IL16_4, Q14005; [2]): below the threshold
pKd (APBA3_1, O96018; [2]): below the threshold
pKd (MPP6, Q9NZW5; [2]): below the threshold
pKd (FRMPD2_1, Q68DX3; [2]): below the threshold
pKd (MAGI2_6, Q86UL8; [2]): below the threshold
pKd (SNTA1, Q13424; [2]): below the threshold
pKd (LRRC7, Q96NW7; [2]): below the threshold
pKd (GRIP2_6, Q9C0E4; [2]): below the threshold
pKd (DLG2_3, Q15700; [2]): 3.73
pKd (APBA2_1, Q99767; [2]): below the threshold
pKd (PTPN13_1, Q12923; [2]): below the threshold
pKd (PARD3_3, Q8TEW0; [2]): below the threshold
pKd (LAP2, Q96RT1; [2]): below the threshold
pKd (FRMPD2_3, Q68DX3; [2]): below the threshold
pKd (RAPGEF6, Q8TEU7; [2]): below the threshold
pKd (DVL3, Q92997; [2]): below the threshold

Other lines, results leading:

pKd (HTRA2, O43464; [1]): 3.51
pKd (DLG5_1, Q8TDM6; [1]): below the threshold
pKd (SNTB1, Q13884; [1]): below the threshold
pKd (AHNAK1, Q09666; [1]): below the threshold
pKd (ARHGEF11, O15085; [1]): 3.95
pKd (PDZD2_2, O15018; [1]): 4.5
pKd (DLG3_1, Q92796; [1]): below the threshold
pKd (SNX27, Q96L92; [1]): below the threshold
pKd (MPP7, Q5T2T1; [1]): 4.79
pKd (IL16_4, Q14005; [1]): below the threshold
pKd (APBA3_1, O96018; [1]): below the threshold
pKd (MPP6, Q9NZW5; [1]): 4.43
pKd (FRMPD2_1, Q68DX3; [1]): 3.69
pKd (MAGI2_6, Q86UL8; [1]): below the threshold
pKd (SNTA1, Q13424; [1]): 3.78
pKd (LRRC7, Q96NW7; [1]): below the threshold
pKd (GRIP2_6, Q9C0E4; [1]): 4.02
pKd (DLG2_3, Q15700; [1]): below the threshold
pKd (APBA2_1, Q99767; [1]): below the threshold
pKd (PTPN13_1, Q12923; [1]): below the threshold
pKd (PARD3_3, Q8TEW0; [1]): 4.48
pKd (LAP2, Q96RT1; [1]): below the threshold
pKd (FRMPD2_3, Q68DX3; [1]): 4.23
pKd (RAPGEF6, Q8TEU7; [1]): below the threshold
pKd (DVL3, Q92997; [1]): 3.85
Binder: QKNKDKEYYV [NRXN3_rs746444206, Q9Y4C0]

pKd (HTRA2, O43464; [3]): below the threshold
pKd (DLG5_1, Q8TDM6; [3]): below the threshold
pKd (SNTB1, Q13884; [3]): below the threshold
pKd (AHNAK1, Q09666; [3]): below the threshold
pKd (ARHGEF11, O15085; [3]): below the threshold
pKd (PDZD2_2, O15018; [3]): below the threshold
pKd (DLG3_1, Q92796; [3]): below the threshold
pKd (SNX27, Q96L92; [3]): 4.16
pKd (MPP7, Q5T2T1; [3]): below the threshold
pKd (IL16_4, Q14005; [3]): below the threshold
pKd (APBA3_1, O96018; [3]): below the threshold
pKd (MPP6, Q9NZW5; [3]): below the threshold
pKd (FRMPD2_1, Q68DX3; [3]): below the threshold
pKd (MAGI2_6, Q86UL8; [3]): below the threshold
pKd (SNTA1, Q13424; [3]): below the threshold
pKd (LRRC7, Q96NW7; [3]): below the threshold
pKd (GRIP2_6, Q9C0E4; [3]): below the threshold
pKd (DLG2_3, Q15700; [3]): below the threshold
pKd (APBA2_1, Q99767; [3]): below the threshold
pKd (PTPN13_1, Q12923; [3]): below the threshold
pKd (PARD3_3, Q8TEW0; [3]): below the threshold
pKd (LAP2, Q96RT1; [3]): below the threshold
pKd (FRMPD2_3, Q68DX3; [3]): below the threshold
pKd (RAPGEF6, Q8TEU7; [3]): below the threshold
pKd (DVL3, Q92997; [3]): below the threshold
Binder: SSSNSEDTEM [NHERF3, Q5T2W1]
